# Laboratory results reported in patent US20230263900A1, “DENDRIMER-DRUG CONJUGATE” (priority 2020, published 2023).
# Experiment: Pharmacokinetic studies of RHa-5 and RHa-15, single IV or SC administration, compared with RDV
# Type: in vivo, animals (mammals)
# Conditions: for F AUC(0-inf), plasma GS-441524 / F AUC(0-inf), plasma Remdesivir / F AUC(0-last), plasma GS-441524 / F AUC(0-last), plasma Remdesivir: relative to RDV IV
# Procedure: Studies were undertaken to investigate the pharmacokinetic (PK) profile of two Remdesivir dendrimer conjugates following single intravenous (IV) or subcutaneous (SC) administration, and to compare them with that of Remdesivir (RDV).
# The study consisted of two phases (PK Phase 1 and PK Phase 2) in a total of 6 animals (age 36-48 months) each part separated by a washout period: • PK Phase 1: Four animals (mammals) were studied. One male and one female were administered RHa-5 (BHALys [Lys]2[Lys]2[Lys]8[Lys]16[Lys]32[(α-NH-6N-TDA-Remdesivir)32(ε-NH-COPEG2000)32] 20% Remdesivir loading w/w) (test item) intravenously; and one male and one female were administered RHa-5 subcutaneously. Blood samples were taken over a period of 7 days. A minimum washout period of 14 days took place between the last blood sampling point of the PK Phase 1 and the start of PK Phase 2. • PK Phase 2: Six animals (mammals) were studied. One male and one female were administered RHa-15 (BHALys[Lys]2[Lys]4[Lys]8[Lys]16[Lys]32[(α-NH-3′ O-TDA-Remdesivir)32(ε-NH-COPEG2000)32] 18.63% Remdesivir loading w/w) (test item) intravenously; one male and one female were administered RHa-15 subcutaneously; and one male and one female were administered RDV (reference item). Blood samples were taken over a period of 7 days.
# Formulation procedure: Test items RHa-5 and RHa-15 were reconstituted in Required volume of Water for injection (WFI), until a complete solution was obtained. The required volume of WFI was slowly added to RDV formulation (a lyophilate of 3.2% w/w RDV, 96.8% and sodium sulfobutylether-β-cyclodextrin adjusted to pH 3.5 with HCl) and shaken vigorously for 30 seconds. The solution was left for 20 minutes to ensure complete dissolution.
# Administration: The clinical Remdesivir loading dose in humans is 200 mg. […] Allometric conversion of the dose from humans to small mammals results in an equivalent test dose of 6.17 mg/kg Remdesivir. Test item was administered as follows:
# PK Phase 1: Two animal groups (A and B) of one male and one female each were administered test item RHa-5 at a Remdesivir equivalent dose of 6.17 mg/kg. Group A were administered the test item as a slow (30 seconds) intravenous bolus; and Group B were administered the test item over 30 seconds using the subcutaneous (SC) route into the back of the animal.
# PK Phase 2: Three animal groups (C, D and E) of one male and one female each were included in this study phase. Groups C and D were administered test item RHa-15 at a Remdesivir equivalent dose of 6.17 mg/kg using the IV and SC routes, respectively. Group E were administered 6.17 mg/kg of RDV intravenously. IV administrations were done as a slow (30 seconds) bolus. SC administrations were done over 30 seconds.
# Sampling schedule: Blood samples for PK analysis were collected as follows: • Day 1: pre-dose and at 15 min, 30 min, 1 h, 2 h, 4 h, 6 h, and 12 h after administration. • Days 2 to 8: 24, 48, 72, and 168 h after administration.
# A blood volume of 2 mL was collected at each time point from the jugular vein with a 20-21G needle into a lithium heparin tube, and transferred into a tube containing 200 μL 0.15 M citric acid. Immediately following blood collection, the blood samples were mixed gently and kept on crushed ice until centrifugation at 1500 G for 10 min at 4° C. within 30 minutes of collection. Each plasma sample was stored frozen (˜80±10° C.).
# The quantification range was 0.6 to 14400 ng/mL for Remdesivir and 0.6 to 14400 ng/mL for G441524.
# Non-compartmental pharmacokinetic analysis was adopted to obtain the pharmacokinetic parameters from the blood concentration profiles.
# The maximum concentration, Cmax, and time of maximum concentration, Tmax, were determined as the maximum measured concentration and its associated time. The area under the plasma concentration curve from 0 hours to the time of the last measurable concentration, AUC0-last, was calculated using linear trapezoidal estimation. […]
# [1] = both sexes, in vivo, iv, 6.17 mg/kg
# [2] = female, in vivo, iv, 6.17 mg/kg
# [3] = IV, 6.17 mg/kg Remdesivir equivalent, female (4F)
# [4] = IV, 6.17 mg/kg Remdesivir equivalent, female (4F; RDV 6F)
# [5] = IV, 6.17 mg/kg Remdesivir equivalent, male (1M)
# [6] = IV, 6.17 mg/kg Remdesivir equivalent, male (1M; RDV 3M)
# [7] = IV, 6.17 mg/kg Remdesivir equivalent, mean of male and female
# [8] = IV, 6.17 mg/kg Remdesivir equivalent, mean
# [9] = SC, 6.17 mg/kg Remdesivir equivalent, female (5F)
# [10] = SC, 6.17 mg/kg Remdesivir equivalent, male (2M)
# [11] = SC, 6.17 mg/kg Remdesivir equivalent, mean
compound,measurement,setting,value
"CCC(CC)COC(=O)[C@H](C)N[P@](=O)(OC[C@H]1O[C@@](C#N)(c2ccc3c(N)ncnn23)[C@H](O)[C@@H]1O)Oc1ccccc1 [RDV, 2-Ethylbutyl (2S)-2-{[(S)-{[(2R,3S,4R,5R)-5-(4-aminopyrrolo[2,1-f][1,2,4]triazin-7-yl)-5-cyano-3,4-dihydroxytetrahydrofuran-2-yl]methoxy}(phenoxy)phosphoryl]amino}propanoate]",AUC(0-inf),[1],332 ng·h/mL
same,AUC(0-t),[1],312 ng·h/mL
same,Cmax,[1],364 ng/mL
same,Tmax,[1],0.3 h
same,"Clast, plasma Remdesivir","both, in vivo, iv, 6.17 mg/kg",2 ng/mL
same,Time with plasma levels of Remdesivir greater than 10 ng/ml,"both, in vivo, iv, 6.17 mg/kg",about 1 hour
same,Time with plasma levels of Remdesivir greater than 100 ng/ml,"both, in vivo, iv, 6.17 mg/kg",about 30 minutes
same,"t1/2last, plasma Remdesivir","both, in vivo, iv, 6.17 mg/kg",7.3 h
same,"tlast, plasma Remdesivir","both, in vivo, iv, 6.17 mg/kg",36 h
same,AUC(0-inf),[2],293 ng·h/mL
same,AUC(0-t),[2],265 ng·h/mL
same,Cmax,[2],267 ng/mL
same,Tmax,[2],0.25 h
same,Vd,[2],3920 L/kg
same,concentration at 48 h,[2],1.8 ng/mL
same,"t1/2last, plasma Remdesivir",[2],10.7 h
same,"tlast, plasma Remdesivir",[2],48 h
same,Clearance from blood,"in vivo, iv",rapidly cleared from blood
same,AUC(0-inf),"male, in vivo, iv, 6.17 mg/kg",370 ng·h/mL
same,AUC(0-t),"male, in vivo, iv, 6.17 mg/kg",360 ng·h/mL
same,Cmax,"male, in vivo, iv, 6.17 mg/kg",462 ng/mL
same,Tmax,"male, in vivo, iv, 6.17 mg/kg",0.25 h
same,Vd,"male, in vivo, iv, 6.17 mg/kg",1130 L/kg
same,concentration at 24 h,"male, in vivo, iv, 6.17 mg/kg",1.8 ng/mL
same,"t1/2last, plasma Remdesivir","male, in vivo, iv, 6.17 mg/kg",3.9 h
same,"tlast, plasma Remdesivir","male, in vivo, iv, 6.17 mg/kg",24 h
BHALys[Lys]2[Lys]4[Lys]8[Lys]16[Lys]32[(α-NH-3′O-TDA-Remdesivir)32(ε-NH-COPEG2000)32] [RHa-15],"C0, plasma GS-441524",[3],1 ng/mL
same,"C0, plasma Remdesivir",[3],691 ng/mL
same,"F AUC(0-inf), plasma GS-441524",[3],0.8 x-fold
same,"F AUC(0-inf), plasma Remdesivir",[3],14.8 x-fold
same,"F AUC(0-last), plasma GS-441524",[3],0.7 x-fold
same,"F AUC(0-last), plasma Remdesivir",[3],16.3 x-fold
same,"Clast, plasma GS-441524",[4],10.5 ng/mL
same,"Clast, plasma Remdesivir",[4],1.8 ng/mL
same,"t1/2last, plasma GS-441524",[4],19.0 h
same,"t1/2last, plasma Remdesivir",[4],10.1 h
same,"tlast, plasma GS-441524",[4],72 h
same,"tlast, plasma Remdesivir",[4],72 h
same,"C0, plasma GS-441524",[5],1 ng/mL
same,"C0, plasma Remdesivir",[5],664 ng/mL
same,"F AUC(0-inf), plasma GS-441524",[5],0.8 x-fold
same,"F AUC(0-inf), plasma Remdesivir",[5],12.1 x-fold
same,"F AUC(0-last), plasma GS-441524",[5],0.7 x-fold
same,"F AUC(0-last), plasma Remdesivir",[5],12.4 x-fold
same,"Clast, plasma GS-441524",[6],10.9 ng/mL
same,"Clast, plasma Remdesivir",[6],1.8 ng/mL
same,"t1/2last, plasma GS-441524",[6],21.5 h
same,"t1/2last, plasma Remdesivir",[6],10.0 h
same,"tlast, plasma GS-441524",[6],72 h
same,"tlast, plasma Remdesivir",[6],72 h
same,"C0, plasma GS-441524",[7],1 ng/mL
same,"C0, plasma Remdesivir",[7],677 ng/mL
same,"Clast, plasma GS-441524",[7],11 ng/mL
same,"Clast, plasma Remdesivir",[7],2 ng/mL
same,"t1/2last, plasma GS-441524",[7],20.3 h
same,"t1/2last, plasma Remdesivir",[7],10.0 h
same,"tlast, plasma GS-441524",[7],72 h
same,"tlast, plasma Remdesivir",[7],2 h
same,"F AUC(0-inf), plasma GS-441524",[8],0.8 x-fold
same,"F AUC(0-inf), plasma Remdesivir",[8],13.5 x-fold
same,"F AUC(0-last), plasma GS-441524",[8],1 x-fold
same,"F AUC(0-last), plasma Remdesivir",[8],14 x-fold
same,"Clast, plasma GS-441524",[9],1 ng/mL
same,"Clast, plasma Remdesivir",[9],2 ng/mL
same,"t1/2last, plasma GS-441524",[9],24.5 h
same,"t1/2last, plasma Remdesivir",[9],31.5 h
same,"tlast, plasma GS-441524",[9],168 h
same,"tlast, plasma Remdesivir",[9],168 h
same,"F AUC(0-inf), plasma GS-441524",[9],0.8 x-fold
same,"F AUC(0-inf), plasma Remdesivir",[9],14.8 x-fold
same,"F AUC(0-last), plasma GS-441524",[9],0.8 x-fold
same,"F AUC(0-last), plasma Remdesivir",[9],16.3 x-fold
same,"Clast, plasma GS-441524",[10],1 ng/mL
same,"Clast, plasma Remdesivir",[10],2 ng/mL
same,"t1/2last, plasma GS-441524",[10],26.2 h
same,"t1/2last, plasma Remdesivir",[10],41.3 h
same,"tlast, plasma GS-441524",[10],168 h
same,"tlast, plasma Remdesivir",[10],168 h
same,"F AUC(0-inf), plasma GS-441524",[10],0.9 x-fold
same,"F AUC(0-inf), plasma Remdesivir",[10],12.1 x-fold
same,"F AUC(0-last), plasma GS-441524",[10],0.9 x-fold
same,"F AUC(0-last), plasma Remdesivir",[10],12.4 x-fold
same,"Clast, plasma GS-441524",[11],1 ng/mL
same,"Clast, plasma Remdesivir",[11],2 ng/mL
same,"t1/2last, plasma GS-441524",[11],25.3 h
same,"t1/2last, plasma Remdesivir",[11],36.4 h
same,"tlast, plasma GS-441524",[11],168 h
same,"tlast, plasma Remdesivir",[11],168 h
same,"F AUC(0-inf), plasma GS-441524",[11],0.8 x-fold
same,"F AUC(0-inf), plasma Remdesivir",[11],13.5 x-fold
same,"F AUC(0-last), plasma GS-441524",[11],1 x-fold
same,"F AUC(0-last), plasma Remdesivir",[11],14 x-fold
same,Plasma Remdesivir t1/2 and AUC compared to RDV delivered IV,delivered IV or SC,substantially extended plasma Remdesivir t1/2 and increased AUC
